Assays:
Format in all cases: cell-based
CD74 = CD74 phospho-serine sandwich ELISA; conditions: MIF 100 ng/ml, 10 mins; COS-7/CD74+CD44 cell line and wild-type MEFs
Experimental: (§1) FIGS. 12A-12E show the phosphoserine content of CD74 and CD44 measured by ELISA. […] The ELISA values represent the mean±SD of triplicate measurements. Experiments were replicated twice. *P<0.02 versus corresponding control (Student's T test, two-tailed). […] Cell lysates were prepared and probed for PKA and PKC using phospho-specific, and total anti-PKA and anti-PKC antibodies.
The observation that the phosphoserine content of CD74 increased only in cells that expressed CD74 and full-length CD44 is consistent with the notion that the MIF-mediated phosphorylation of CD74 is dependent on the activity of the CD44 intracytoplasmic domain.
The serine phosphorylation of CD74 and CD44 was quantified by specific sandwich ELISA (Perez et al. (2003). Nature Immunol 4:1083-92). […] After several washes (0.5% Tween-20 in PBS), 0.2 μg/ml anti-phospho-serine antibody (Hypromatrix) conjugated with horseradish peroxidase was added, and immunoreactivity measured by the TMB reagent (DakoCytomation) and the data analyzed with SpectraMax Plus (Molecular Devices).
Cell lysates were collected and analyzed by immunoblots using a pair of anti-phospho-PICA and anti-(total)-PKA antibodies, a pair of anti-phospho-PKC (all from Cell Signaling) and anti-(total)-PKC (Santa Cruz) antibodies, or a pair of anti-phospho-p56^lck (Cell Signaling) and anti-(total) p56^lck (sc-433, Santa Cruz) antibodies.

ERK-1/2 = ERK-1/2 phosphorylation in murine embryonic fibroblasts and peritoneal macrophages; conditions: wild-type, CD74-KO and CD44-KO cells
Experimental: Whole cell lysates then were prepared and analyzed by Western blotting with specific anti-phospho-ERK-1/2 (p-ERK1/2) or anti-total ERK/1/2 antibodies. […] Peritoneal macrophages were stimulated for 10 mins (Mitchell et al. (1999). J Biol Chem 274:18100-6) and the lysates then analyzed by Western blotting. […] Recombinant, sCD74 was incubated with MN overnight in a 3:1 molar ratio prior to addition to cells for 10 mins. Epidermal growth factor (EGF) was used as a positive control for ERK-1/2 phosphorylation (Yamamoto et al. (2003). Develop Biol 260:512-521). Data shown are representative of three experiments.
Signal Transduction Assays. […] The human CD74 ectodomain (CD74^73-232) was prepared recombinantly in soluble form (sCD74) as described previously (Leng et al. (2003). J Exp Med 197:1467-1476). […] Cells then were harvested and lysed in buffer containing 50 mM Hepes, pH7.5, 150 mM NaCl, 1.5 mM MgCl2, 1 mM EGTA, 1% Glycerol and 1% Triton X-100, and freshly added phosphatase and proteinase inhibitors (1 mM orthovanandate, 10 mM NaF, 10 μg/ml leupeptin, 25 μg/ml aprotinin and 50 μg/ml PMSF). For immunoblotting, 15-20 μg of cell lysate proteins were separated by 10% SDS-PAGE and transferred to PVDF Immobilon-P transfer membranes (Millipore). […]

CD44 = CD44 phospho-serine sandwich ELISA; conditions: MIF 100 ng/ml, 10 mins
Experimental: as §1
Ser325 is constitutively phosphorylated in resting cells, but undergoes de-phosphorylation in response to PKC activating stimuli such as phorbol esters. […] The effect of MIF-stimulation CD44 phosphorylation was analyzed in the COS-7 and MEF cell lines by sandwich ELISA using an anti-CD44 capture antibody to quantify CD44 phospho-serine residues (Perez et al. (2003). Nature Immunol. 4:1083-92). […]
The serine phosphorylation of CD74 and CD44 was quantified by specific sandwich ELISA (Perez et al. (2003). Nature Immunol 4:1083-92). […] After several washes (0.5% Tween-20 in PBS), 0.2 μg/ml anti-phospho-serine antibody (Hypromatrix) conjugated with horseradish peroxidase was added, and immunoreactivity measured by the TMB reagent (DakoCytomation) and the data analyzed with SpectraMax Plus (Molecular Devices). […]

p53 = assay: Cytoplasmic Ser15-phosphorylated p53 content, COS-7 cells; conditions: during apoptosis induction
Experimental: Apoptosis Studies. […] Cell lysates were collected, and caspase-3 activity analyzed using a colorimetric assay kit (R&D Systems). Cytoplasmic p53 content was analyzed as described previously (Mitchell et al. (2002). Proc Natl Acad Sci USA 99:345-350) by immunoblotting of mouse cytosolic fractions using a pair of anti-phospho-p53 (Ser15) (R&D Systems) and total anti-p53 antibodies (Cell Signaling); and for COS-7 cells, the anti-p53 (Ser15) and total anti-p53 antibodies (Cell Signaling). In vivo apoptosis studies followed the procedures of (Mitchell et al. (2002). Proc Natl Acad Sci USA 99:345-350), and were conducted after i.p injection of 15 mg/kg lipopolysaccharide (E. coli 0111:B4; Sigma). Mice were sacrificed 24 hrs after priming and the peritoneal macrophage cells collected and immediately analyzed for apoptosis by an ELISA that detects cytoplasmic oligonucleosomes (Roche Diagnostics). Primary macrophages also were immunostained by Alexa 488-conjugated, Annexin V (Invitrogen), and apoptotic cells enumerated by fluorescence microscopy.

B1: MIF: macrophage migration inhibitory factor; recombinant mouse or human MIF purified essentially free of endotoxin (protein)
chain: PMFIVNTNVPRASVPDGFLSELTQQLAQATGKPPQYIAVHVVPDQLMAFGGSSEPCALCSLHSIGKIGGAQNRSYSKLLCGLLAERLRISPDRVYINYYDMNAANVGWNNSTFA
phosphorylation of CD74 (phospho-serine content) (CD74): increased significantly | ERK-1/2 phosphorylation (ERK-1/2): induced ERK-1/2 phosphorylation only in wild-type cells | net content of CD44 serine phosphorylation (CD44): did not change | intracytoplasmic content of Ser15-phosphorylated p53 (p53): reduction in the intracytoplasmic content

— US20100143379A1 (priority 2005, published 2010)
